Source: US20220251192A1 (Memorial Sloan Kettering, published 2022)

B1: chMy96 (antibody, V domains shown)
VH: QVQLQQPGAEVVKPGASVKMSCKASGYTFTSYYIHWIKQTPGQGLEWVGVIYPGNDDISYNQKFKGKATLTADKSSTTAYMQLSSLTSEDSAVYYCAREVRLRYFDVWGAGTTVTVSS
VL: NIMLTQSPSSLAVSAGEKVTMSCKSSQSVFFSSSQKNYLAWYQQIPGQSPKLLIYWASTRESGVPDRFTGSGSGTDFTLTISSVQSEDLAIYYCHQYLSSRTFGGGTKLEIK
notes: also called chimeric form of My96; chimeric anti-CD33 antibody
B2: My96-H1L2 (antibody, human IgG1, V domains shown)
VH: QVQLVQSGAEVKKPGASVKVSCKASGYTFTSYYMHWVRQAPGQGLEWMGVIYPGNDDISYAQKFQGRVTMTADTSTSTVYMELSSLRSEDTAVYYCAREVRLRYFDVWGAGTTVTVSS
VL: NIVLTQSPDSLAVSLGERATINCKSSQSVFFSSSQKNYLAWYQQKPGQPPKLLIYWASTRESGVPDRFSGSGSGTDFTLTISSLQAEDVAVYYCHQYLSSRTFGGGTKLEIK
notes: Humanized My96 IgG (human IgG1 frameworks), expressed in DG44 cells; also called humanized My96 VH-1/VL-2
B3: My96-H2L3 (antibody, human IgG1, V domains shown)
VH: QVQLVQSGAEVKKPGASVKVSCKASGYTFTSYYMHWVRQAPGQGLEWMGVIYPGNDDISYNQKFQGRVTMTADKSTSTVYMELSSLRSEDTAVYYCAREVRLRYFDVWGAGTTVTVSS
VL: NIVLTQSPDSLAVSLGERATINCKSSQSVFFSSSQKNYLAWYQQRPGQPPKLLIYWASTRESGVPDRFSGSGSGTDFTLTISRLQAEDVAVYYCHQYLSSRTFGGGTKVEIK
notes: Humanized My96 IgG (human IgG1 frameworks), expressed in DG44 cells; also called humanized My96 VH-2/VL-3
B4: My96-H1L1 (antibody, human IgG1, V domains shown)
VH: QVQLVQSGAEVKKPGASVKVSCKASGYTFTSYYMHWVRQAPGQGLEWMGVIYPGNDDISYAQKFQGRVTMTADTSTSTVYMELSSLRSEDTAVYYCAREVRLRYFDVWGAGTTVTVSS
VL: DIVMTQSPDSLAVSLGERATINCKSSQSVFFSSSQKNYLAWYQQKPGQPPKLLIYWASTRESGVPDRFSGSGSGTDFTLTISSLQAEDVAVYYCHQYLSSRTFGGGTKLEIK
notes: Humanized My96 IgG (CDRs grafted onto human IgG1 frameworks), expressed in DG44 cells; also called hMy96 H1L1; humanized My96 VH-1/VL-1
B5: My96-H3L2 (antibody, human IgG1, V domains shown)
VH: QVQLVQSGAEVKKPGASVKVSCKASGYTFTSYYIHWVRQAPGQGLEWMGVIYPGNDDISYAQKFQGRVTITADKSATTAYMELSSLRSEDTAVYYCAREVRLRYFDVWGQGTLVTVSS
VL: NIVLTQSPDSLAVSLGERATINCKSSQSVFFSSSQKNYLAWYQQKPGQPPKLLIYWASTRESGVPDRFSGSGSGTDFTLTISSLQAEDVAVYYCHQYLSSRTFGGGTKLEIK
notes: Humanized My96 IgG (human IgG1 frameworks), expressed in DG44 cells; also called hMy96 L2H3 (variable domains as in BsAb BC248); humanized My96 VH-3/VL-2
B6: My96-H3L3 (antibody, human IgG1, V domains shown)
VH: QVQLVQSGAEVKKPGASVKVSCKASGYTFTSYYIHWVRQAPGQGLEWMGVIYPGNDDISYAQKFQGRVTITADKSATTAYMELSSLRSEDTAVYYCAREVRLRYFDVWGQGTLVTVSS
VL: NIVLTQSPDSLAVSLGERATINCKSSQSVFFSSSQKNYLAWYQQRPGQPPKLLIYWASTRESGVPDRFSGSGSGTDFTLTISRLQAEDVAVYYCHQYLSSRTFGGGTKVEIK
notes: Humanized My96 IgG (human IgG1 frameworks), expressed in DG44 cells; also called humanized My96 VH-3/VL-3
B7: My96-H3L1 (antibody, human IgG1, V domains shown)
VH: QVQLVQSGAEVKKPGASVKVSCKASGYTFTSYYIHWVRQAPGQGLEWMGVIYPGNDDISYAQKFQGRVTITADKSATTAYMELSSLRSEDTAVYYCAREVRLRYFDVWGQGTLVTVSS
VL: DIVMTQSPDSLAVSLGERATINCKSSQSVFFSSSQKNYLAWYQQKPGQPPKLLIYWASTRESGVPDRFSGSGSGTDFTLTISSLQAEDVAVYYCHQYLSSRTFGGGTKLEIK
notes: Humanized My96 IgG (human IgG1 frameworks), expressed in DG44 cells; also called hMy96 L1H3 (variable domains as in BsAb BC269); humanized My96 VH-3/VL-1
B8: My96-H1L3 (antibody, human IgG1, V domains shown)
VH: QVQLVQSGAEVKKPGASVKVSCKASGYTFTSYYMHWVRQAPGQGLEWMGVIYPGNDDISYAQKFQGRVTMTADTSTSTVYMELSSLRSEDTAVYYCAREVRLRYFDVWGAGTTVTVSS
VL: NIVLTQSPDSLAVSLGERATINCKSSQSVFFSSSQKNYLAWYQQRPGQPPKLLIYWASTRESGVPDRFSGSGSGTDFTLTISRLQAEDVAVYYCHQYLSSRTFGGGTKVEIK
notes: Humanized My96 IgG (human IgG1 frameworks), expressed in DG44 cells; also called humanized My96 VH-1/VL-3
B9: My96-H2L1 (antibody, human IgG1, V domains shown)
VH: QVQLVQSGAEVKKPGASVKVSCKASGYTFTSYYMHWVRQAPGQGLEWMGVIYPGNDDISYNQKFQGRVTMTADKSTSTVYMELSSLRSEDTAVYYCAREVRLRYFDVWGAGTTVTVSS
VL: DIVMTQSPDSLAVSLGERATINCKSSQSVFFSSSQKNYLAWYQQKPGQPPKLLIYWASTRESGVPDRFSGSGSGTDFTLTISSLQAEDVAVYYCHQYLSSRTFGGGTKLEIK
notes: Humanized My96 IgG (human IgG1 frameworks), expressed in DG44 cells; also called hMy96 L1H2 (variable domains as in BsAb BC257); humanized My96 VH-2/VL-1
B10: My96-H2L2 (antibody, human IgG1, V domains shown)
VH: QVQLVQSGAEVKKPGASVKVSCKASGYTFTSYYMHWVRQAPGQGLEWMGVIYPGNDDISYNQKFQGRVTMTADKSTSTVYMELSSLRSEDTAVYYCAREVRLRYFDVWGAGTTVTVSS
VL: NIVLTQSPDSLAVSLGERATINCKSSQSVFFSSSQKNYLAWYQQKPGQPPKLLIYWASTRESGVPDRFSGSGSGTDFTLTISSLQAEDVAVYYCHQYLSSRTFGGGTKLEIK
notes: Humanized My96 IgG (human IgG1 frameworks), expressed in DG44 cells; also called humanized My96 VH-2/VL-2

What follows are binders tested against T1, CD33 (UniProt P20138 18-259, limits assumed) (assay: SPR, Biacore T-200, CD33 amine-coupled on CM5 chip, antibody as analyte (31-500 nM)).
T1 construct: CD33 protein used as the active surface in the Biacore assay (about 1000 RU); also called Siglec-3; SIGLEC3
T1 sequence (P20138 18-259 limits assumed): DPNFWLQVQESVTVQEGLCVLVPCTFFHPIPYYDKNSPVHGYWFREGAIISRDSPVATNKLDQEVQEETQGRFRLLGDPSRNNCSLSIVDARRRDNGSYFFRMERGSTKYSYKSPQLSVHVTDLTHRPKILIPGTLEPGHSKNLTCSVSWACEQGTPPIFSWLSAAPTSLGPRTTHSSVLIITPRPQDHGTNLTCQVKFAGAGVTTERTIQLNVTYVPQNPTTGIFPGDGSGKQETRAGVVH
Method: To determine whether humanized anti-CD33 My96 antibodies bind to CD33 with equal affinity as the chimeric form, surface plasmon resonance assay using Biacore T-200 was performed. Biacore T-200 Biosensor, CM5 sensor chip, and related reagents were purchased from GE Healthcare. CD33 as the active surfaces and blank as the reference were immobilized onto the CM5 sensor chip at around 1000 RU (response units) using the Amino Coupling kit (GE Healthcare). CD33 antibodies and relevant control antibodies were diluted in HBS-EP buffer (0.01 M HEPES pH 7.4, 0.15 M NaCl, 3 mM EDTA, 0.05% v/v Surfactant P20) at varying concentrations (31-500 nM) prior to analysis. Samples were injected over the sensor surface at a flow rate of 30 μL/min over 1 min. Following completion of the association phase, dissociation was monitored in HBS-EP buffer for 3 min at the same flow rate or for 30 minutes at 37° C. for antibodies with slow koff. At the end of each cycle, the surface was regenerated using 10 mM NaOH at a flow rate of 50 μL/min over 30 sec. The biosensor curves obtained following injection of the samples over active surface were subtracted from the control curves obtained with the samples injected over reference surface prior to kinetics analysis. The data were analyzed using the Biacore T-200 evaluation software. As shown in the Table below, the humanized anti-CD33 My96 antibodies bound with similar kₒₙ and koff as the chimeric form of the antibodies.

**Q.** How did the Kd turn out when B1 was run?
**A.** The Kd was 0.321 pM.

**Q.** And the koff?
**A.** The koff was 2.38e-07 s⁻¹.

**Q.** And the kon?
**A.** Its kon is 739000 M⁻¹ s⁻¹.

**Q.** What does the source list for B2?
**A.** Kd: 0.218 pM; koff: 1.03e-07 s⁻¹; kon: 473000 M⁻¹ s⁻¹

**Q.** What does the source list for B3?
**A.** Kd: 0.143 pM; koff: 9.16e-08 s⁻¹; kon: 641000 M⁻¹ s⁻¹

**Q.** What does the source list for B4?
**A.** Kd: 0.321 pM; koff: 1.44e-07 s⁻¹; kon: 447000 M⁻¹ s⁻¹

**Q.** With B5 as the binder, how does the Kd read?
**A.** Its Kd is 0.294 pM.

**Q.** And the koff?
**A.** Its koff is 1.6e-07 s⁻¹.

**Q.** And the kon?
**A.** Its kon is 543000 M⁻¹ s⁻¹.

**Q.** B6 was tested. Which Kd did it give?
**A.** The Kd was 0.324 pM.

**Q.** What about the koff of the same binder?
**A.** Its koff is 2.03e-07 s⁻¹.

**Q.** What about the kon of the same binder?
**A.** The kon was 625000 M⁻¹ s⁻¹.

**Q.** With B7 as the binder, how does the Kd read?
**A.** Its Kd is 0.00645 pM.

**Q.** What about the koff of the same binder?
**A.** Its koff is 3.63e-09 s⁻¹.

**Q.** And the kon?
**A.** Its kon is 563000 M⁻¹ s⁻¹.

**Q.** Which results are given for B8?
**A.** Kd: 0.88 pM; koff: 4.95e-07 s⁻¹; kon: 563000 M⁻¹ s⁻¹

**Q.** How did the Kd turn out when B9 was run?
**A.** The Kd was 2.42 pM.

**Q.** And the koff?
**A.** The koff was 1.51e-06 s⁻¹.

**Q.** What about the kon of the same binder?
**A.** The kon was 623000 M⁻¹ s⁻¹.

**Q.** B10 was tested. Which Kd did it give?
**A.** Its Kd is 0.273 pM.

**Q.** And the koff?
**A.** Its koff is 1.42e-07 s⁻¹.

**Q.** What about the kon of the same binder?
**A.** The kon was 520000 M⁻¹ s⁻¹.
